In the assay the test system is NIH3T3-AXL cl.7 fibroblasts. Kind of assay: AlamarBlue Gas6-induced proliferation assay. In kind it is cell-based. The settings on record: 20 μg/ml antibody, with or without 400 ng/ml Gas6, 96 h. Here is the method:
In vitro experiments were conducted in order to determine the ability of the rat anti-AXL antibodies of the invention to inhibit Gas6-induced cell proliferation. For this purpose, 2,500 NIH3T3-AXL cl.7 fibroblasts per well were seeded in FCS-containing medium on 96 well plates over night. […] Cells were treated with or without 400 ng/ml mouse Gas6 (R&D Systems) by adding ligand directly to the antibody solution, and were then left to grow for 96 h. AlamarBlue™ (BIOSOURCE #DAL1100) was added and incubated at 37° C. in the dark. Absorbance was measured at 590 nm every 30 min. The data were taken 4 h after addition of AlamarBlue™.
A general note: The colour change of resazurin is a common sign of viable cells or microbes.

B1: 11B7: antagonistic rat anti-AXL monoclonal antibody, rat IgG1 (antibody, V domains shown)
VL: DIQMTQAPSSLPASLGDRVTITCRASQDIGNYLRWFQQKPGKSPRLMISGATNLAAGVPSRFSGSRSGSDYSLTISSLESEDMADYYCLQSKESPWTFGGGTKLELK
VH: EVQLQESGPGLVKPSQSLSLTCSVTGYSITSNYWGWIRKFPGDKMEWMGYITYSGSTSYNPSLKSRISITRDTSKNQFFLQLNSVTSEDTATYYCAITTFYYWGQGVMVTVSS
As for B1, the cell proliferation entry was “blocked Gas6-induced proliferation”.
